Test results from IntAct's records for PubMed 23136403.

B1: Catenin alpha-3 (Homo sapiens), Q9UI47-1 (parent)
chain: MSAETPITLNIDPQDLQVQTFTVEKLLEPLIIQVTTLVNCPQNPSSRKKGRSKRASVLLASVEEATWNLLDKGEKIAQEATVLKDELTASLEEVRKESEALKVSAERFTDDPCFLPKREAVVQAARALLAAVTRLLILADMIDVMCLLQHVSAFQRTFESLKNVANKSDLQKTYQKLGKELENLDYLAFKRQQDLKSPNQRDEIAGARASLKENSPLLHSICSACLEHSDVASLKASKDTVCEEIQNALNVISNASQGIQNMTTPPEPQAATLGSALDELENLIVLNPLTVTEEEIRPSLEKRLEAIISGAALLADSSCTRDLHRERIIAECNAIRQALQDLLSEYMNNAGKKERSNTLNIALDNMCKKTRDLRRQLRKAIIDHVSDSFLDTTVPLLVLIEAAKNGREKEIKEYAAIFHEHTSRLVEVANLACSMSTNEDGIKIVKIAANHLETLCPQIINAALALAARPKSQAVKNTMEMYKRTWENHIHVLTEAVDDITSIDDFLAVSESHILEDVNKCIIALRDQDADNLDRAAGAIRGRAARVAHIVTGEMDSYEPGAYTEGVMRNVNFLTSTVIPEFVTQVNVALEALSKSSLNVLDDNQFVDISKKIYDTIHDIRCSVMMIRTPEELEDVSDLEEEHEVRSHTSIQTEGKTDRAKMTQLPEAEKEKIAEQVADFKKVKSKLDAEIEIWDDTSNDIIVLAKNMCMIMMEMTDFTRGKGPLKHTTDVIYAAKMISESGSRMDVLARQIANQCPDPSCKQDLLAYLEQIKFYSHQLKICSQVKAEIQNLGGELIMSALDSVTSLIQAAKNLMNAVVQTVKMSYIASTKIIRIQSPAGPRHPVVMWRMKAPAKKPLIKREKPEETCAAVRRGSAKKKIHPLQVMSEFRGRQIY
partner: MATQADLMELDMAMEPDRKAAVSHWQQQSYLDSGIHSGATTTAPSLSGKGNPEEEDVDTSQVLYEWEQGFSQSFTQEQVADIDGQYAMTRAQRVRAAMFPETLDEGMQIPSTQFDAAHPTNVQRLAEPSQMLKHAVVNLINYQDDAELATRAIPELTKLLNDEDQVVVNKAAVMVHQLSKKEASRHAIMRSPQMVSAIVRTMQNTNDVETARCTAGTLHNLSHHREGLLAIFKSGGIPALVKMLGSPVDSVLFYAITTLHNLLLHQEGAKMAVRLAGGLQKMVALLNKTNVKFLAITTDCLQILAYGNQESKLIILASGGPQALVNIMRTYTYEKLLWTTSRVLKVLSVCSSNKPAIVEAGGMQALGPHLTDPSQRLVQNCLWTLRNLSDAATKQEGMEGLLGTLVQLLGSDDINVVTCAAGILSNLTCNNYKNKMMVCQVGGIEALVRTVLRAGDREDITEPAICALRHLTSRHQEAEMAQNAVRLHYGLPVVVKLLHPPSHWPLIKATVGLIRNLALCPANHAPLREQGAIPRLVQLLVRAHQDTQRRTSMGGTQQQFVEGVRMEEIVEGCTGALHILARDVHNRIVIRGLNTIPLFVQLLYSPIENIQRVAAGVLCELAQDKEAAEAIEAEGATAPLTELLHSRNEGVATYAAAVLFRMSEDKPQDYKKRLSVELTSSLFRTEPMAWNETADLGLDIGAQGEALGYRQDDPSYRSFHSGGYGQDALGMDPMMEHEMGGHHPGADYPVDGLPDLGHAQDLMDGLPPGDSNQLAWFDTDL
B2: Catenin alpha-3 (Homo sapiens), Q9UI47-1 (parent)
chain: B1 chain
partner: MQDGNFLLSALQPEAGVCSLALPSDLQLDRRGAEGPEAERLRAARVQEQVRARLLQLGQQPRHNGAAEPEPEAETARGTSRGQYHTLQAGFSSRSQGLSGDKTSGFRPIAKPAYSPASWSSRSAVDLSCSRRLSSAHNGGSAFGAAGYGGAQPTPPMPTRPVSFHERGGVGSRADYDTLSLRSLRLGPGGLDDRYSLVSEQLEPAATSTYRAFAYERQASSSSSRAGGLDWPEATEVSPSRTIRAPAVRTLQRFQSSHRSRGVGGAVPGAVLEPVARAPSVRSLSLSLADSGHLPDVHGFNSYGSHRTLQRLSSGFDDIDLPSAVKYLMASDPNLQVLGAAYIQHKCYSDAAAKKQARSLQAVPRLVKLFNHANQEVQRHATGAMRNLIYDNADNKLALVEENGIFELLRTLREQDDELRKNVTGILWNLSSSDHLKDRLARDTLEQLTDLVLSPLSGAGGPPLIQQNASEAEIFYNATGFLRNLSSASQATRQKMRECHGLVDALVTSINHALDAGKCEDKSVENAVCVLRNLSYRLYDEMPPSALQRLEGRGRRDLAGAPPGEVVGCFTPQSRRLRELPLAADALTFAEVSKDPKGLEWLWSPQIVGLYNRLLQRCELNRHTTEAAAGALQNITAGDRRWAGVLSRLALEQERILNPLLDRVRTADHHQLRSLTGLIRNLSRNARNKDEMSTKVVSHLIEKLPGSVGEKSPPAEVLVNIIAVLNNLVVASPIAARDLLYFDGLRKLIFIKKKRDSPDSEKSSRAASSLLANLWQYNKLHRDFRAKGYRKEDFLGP
B3: Catenin alpha-3 (Homo sapiens), Q9UI47-1 (parent)
chain: B1 chain
partner: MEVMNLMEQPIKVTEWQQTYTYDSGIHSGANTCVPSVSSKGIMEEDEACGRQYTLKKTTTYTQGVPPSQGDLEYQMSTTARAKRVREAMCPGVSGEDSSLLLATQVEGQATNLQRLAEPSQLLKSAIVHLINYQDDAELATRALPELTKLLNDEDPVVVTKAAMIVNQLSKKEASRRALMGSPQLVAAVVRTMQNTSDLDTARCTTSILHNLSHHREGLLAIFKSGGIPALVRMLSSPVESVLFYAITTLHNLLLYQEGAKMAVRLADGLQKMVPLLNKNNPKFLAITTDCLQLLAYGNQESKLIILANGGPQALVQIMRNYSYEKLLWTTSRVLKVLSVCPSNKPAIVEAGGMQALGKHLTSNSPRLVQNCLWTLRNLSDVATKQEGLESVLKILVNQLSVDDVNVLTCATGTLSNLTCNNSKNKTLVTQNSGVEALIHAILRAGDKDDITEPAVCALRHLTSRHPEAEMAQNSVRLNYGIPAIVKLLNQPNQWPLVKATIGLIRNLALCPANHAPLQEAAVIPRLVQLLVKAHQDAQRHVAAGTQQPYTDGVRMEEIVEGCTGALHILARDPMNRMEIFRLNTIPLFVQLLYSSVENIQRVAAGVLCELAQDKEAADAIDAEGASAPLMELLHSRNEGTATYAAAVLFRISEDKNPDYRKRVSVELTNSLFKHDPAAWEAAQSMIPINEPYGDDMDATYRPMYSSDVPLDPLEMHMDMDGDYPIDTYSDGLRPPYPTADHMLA
B4: Catenin alpha-3 (Homo sapiens), Q9UI47-1 (parent)
chain: B1 chain
partner: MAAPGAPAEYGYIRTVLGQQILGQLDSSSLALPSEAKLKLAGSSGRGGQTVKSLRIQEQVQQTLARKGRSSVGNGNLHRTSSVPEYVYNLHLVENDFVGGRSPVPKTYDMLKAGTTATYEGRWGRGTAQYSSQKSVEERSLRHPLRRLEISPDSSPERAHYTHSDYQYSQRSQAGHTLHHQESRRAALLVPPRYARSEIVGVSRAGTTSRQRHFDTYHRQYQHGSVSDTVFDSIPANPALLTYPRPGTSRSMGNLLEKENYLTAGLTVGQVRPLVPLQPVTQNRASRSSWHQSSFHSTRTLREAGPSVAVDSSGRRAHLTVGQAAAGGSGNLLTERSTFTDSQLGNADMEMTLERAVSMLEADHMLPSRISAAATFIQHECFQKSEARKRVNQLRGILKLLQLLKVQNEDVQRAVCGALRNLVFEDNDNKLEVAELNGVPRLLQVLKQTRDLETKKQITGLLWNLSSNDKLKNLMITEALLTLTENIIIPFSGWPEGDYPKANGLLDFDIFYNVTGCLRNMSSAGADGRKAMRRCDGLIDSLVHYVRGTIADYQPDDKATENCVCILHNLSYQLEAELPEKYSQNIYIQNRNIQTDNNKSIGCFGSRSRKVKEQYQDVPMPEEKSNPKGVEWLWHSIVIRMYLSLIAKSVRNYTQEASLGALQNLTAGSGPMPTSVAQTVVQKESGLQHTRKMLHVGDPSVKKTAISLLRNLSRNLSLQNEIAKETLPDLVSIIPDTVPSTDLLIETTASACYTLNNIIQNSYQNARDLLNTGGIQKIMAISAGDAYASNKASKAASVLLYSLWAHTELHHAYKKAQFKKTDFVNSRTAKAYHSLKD
B5: Catenin alpha-3 (Homo sapiens), Q9UI47-1 (parent)
chain: B1 chain

Variants of: B1
Conditions: with ctnb1_rat Ctnnb1, Q9WU82

Q: How did the “effect of a mutation on the interaction” value turn out when V94D was run?
A: Its value is “with no effect”.

Variants of: B2
Conditions: with pkp3_human PKP3, Q9Y446

Q: With V94D as the variant, how does the “effect of a mutation on the interaction” value read?
A: The value was “with no effect”.

Variants of: B3
Conditions: with plak_human JUP

Q: Which “effect of a mutation on the interaction” value does the source give for V94D here?
A: The value was “disrupting interaction strength”.

Variants of: B4
Conditions: with PKP2, Q99959-2

Q: With V94D as the variant, how does the “effect of a mutation on the interaction” value read?
A: The value was “with no effect”.

Variants of: B5
Conditions: with ctnb1_human CTNNB1, P35222

Q: With V94D as the variant, how does the “effect of a mutation on the interaction” value read?
A: The value was “disrupting interaction strength”.

Variants of: B5
Conditions: with ctnb1_human CTNNB1, P35222
Remark: another data set of the same source

Q: How did the “effect of a mutation on the interaction” value turn out when V94D was run?
A: Its value is “decreasing interaction strength”.

Variants of: B5
Conditions: with ctnb1_mouse Ctnnb1, Q02248

Q: V94D was tested. Which “effect of a mutation on the interaction” value did it give?
A: The value was “disrupting interaction strength”.
